The source of these data is the Immune Epitope Database (IEDB).

Targets include HLA-A*31:01; HLA-A*33:01; HLA-A*11:01; HLA-A*68:01; HLA-A*03:01.
Common to all, as to assay: IEDB peptide-MHC binding, purified MHC/competitive/radioactivity; filed as Kd, often an IC50 or EC50 that approximates it; ≥ and ≤ were set here for values at or beyond the usual limits of such assays
[1] abbreviates: source organism: Vaccinia virus WR.
Setting [2] is: source organism: Mammarenavirus lassaense.
The mark [3] stands for this setting: source organism: Mammarenavirus juninense.
Setting [4] is: source organism: Lassa virus Josiah.
The mark [5] stands for this setting: source organism: SARS coronavirus Tor2.

Broadly, the Kd is the equilibrium constant for the complex coming apart. On to ISLNSMYTR, for which the Kd with HLA-A*31:01 (setting [1]) was 0.00462 µM; with HLA-A*33:01 (setting [1]) it was 0.0856 µM; in the assay with HLA-A*11:01 (setting [1]), 0.0374 µM; with HLA-A*68:01 (setting [1]) it was 0.0133 µM; with HLA-A*03:01 (setting [1]) it was 6.1 µM.

Take HSYAGDAAEH: the Kd with HLA-A*31:01 (setting [2]) is 2.96 µM; with HLA-A*33:01 (setting [2]), no less than 48 µM; with HLA-A*11:01 (setting [2]) it was 17.7 µM; in the assay with HLA-A*68:01 (setting [2]), 0.578 µM; with HLA-A*03:01 (setting [2]), 1.48 µM.

For the sequence DLDKVYEILK, the dissociation constant Kd in the assay with HLA-A*31:01 (setting [1]) was 12 µM; with HLA-A*33:01 (setting [1]), no less than 24.3 µM; in the assay with HLA-A*11:01 (setting [1]), 0.751 µM; with HLA-A*68:01 (setting [1]) it was 1.3 µM; with HLA-A*03:01 (setting [1]), 3.35 µM.

For SWPVQCPLDH, the dissociation constant (Kd) in the assay with HLA-A*31:01 (setting [3]) is 0.00974 µM; with HLA-A*33:01 (setting [3]), 19.4 µM; in the assay with HLA-A*11:01 (setting [3]) it was no less than 69.7 µM; in the assay with HLA-A*68:01 (setting [3]), no less than 70.1 µM; with HLA-A*03:01 (setting [3]) it was no less than 70 µM.

For IFYFISIYSR, the Kd with HLA-A*31:01 (setting [1]) amounted to 0.00239 µM; with HLA-A*33:01 (setting [1]) it was 0.0762 µM; with HLA-A*11:01 (setting [1]), 4.18 µM; in the assay with HLA-A*68:01 (setting [1]) it was 0.0389 µM; in the assay with HLA-A*03:01 (setting [1]) it was 0.175 µM.

Regarding CFPSTQRDY, the Kd with HLA-A*31:01 (setting [1]) is 9.81 µM; with HLA-A*33:01 (setting [1]), no less than 77.7 µM; with HLA-A*11:01 (setting [1]) it was 2.51 µM; in the assay with HLA-A*68:01 (setting [1]), no less than 58.4 µM; with HLA-A*03:01 (setting [1]), 0.868 µM.

For VFIHMVRCCK, the Kd with HLA-A*31:01 (setting [1]) was 0.0439 µM; with HLA-A*33:01 (setting [1]), 0.212 µM; with HLA-A*11:01 (setting [1]), 4.82 µM; in the assay with HLA-A*68:01 (setting [1]) it was no less than 24.5 µM; in the assay with HLA-A*03:01 (setting [1]), no less than 20.9 µM.

AMSCDFNGGK: the Kd in the assay with HLA-A*31:01 (setting [4]) is no less than 30 µM; with HLA-A*33:01 (setting [4]), no less than 24.2 µM; in the assay with HLA-A*11:01 (setting [4]), 0.273 µM; with HLA-A*68:01 (setting [4]), no less than 26.7 µM; in the assay with HLA-A*03:01 (setting [4]), 2 µM.

For the sequence GQRCHFIKK, the equilibrium dissociation constant (Kd) is 0.062 µM in the assay with HLA-A*31:01 (setting [1]); 13.2 µM in the assay with HLA-A*33:01 (setting [1]); 0.0134 µM with HLA-A*11:01 (setting [1]); no less than 25 µM in the assay with HLA-A*68:01 (setting [1]); 0.0214 µM in the assay with HLA-A*03:01 (setting [1]).

With KAIITPVVFY, the Kd was no less than 70 µM with HLA-A*31:01 (setting [1]); no less than 70 µM in the assay with HLA-A*33:01 (setting [1]); 0.9 µM with HLA-A*11:01 (setting [1]); 6.7 µM in the assay with HLA-A*68:01 (setting [1]); 7.47 µM in the assay with HLA-A*03:01 (setting [1]).

With TMHANYIFWR, the Kd worked out at 0.0113 µM with HLA-A*31:01 (setting [5]); 0.121 µM with HLA-A*33:01 (setting [5]); 0.125 µM in the assay with HLA-A*11:01 (setting [5]); 0.0355 µM with HLA-A*68:01 (setting [5]); 1.26 µM with HLA-A*03:01 (setting [5]).

As for TQMRTPLHK, the Kd in the assay with HLA-A*31:01 (setting [1]) was 3.52 µM; with HLA-A*33:01 (setting [1]) it was no less than 77.7 µM; with HLA-A*11:01 (setting [1]), 0.078 µM; in the assay with HLA-A*68:01 (setting [1]) it was 8.96 µM; with HLA-A*03:01 (setting [1]), 1.18 µM.

For TQNVLYENQK, the equilibrium dissociation constant (Kd) with HLA-A*31:01 (setting [5]) is 13.3 µM; with HLA-A*33:01 (setting [5]) it was no less than 70 µM; with HLA-A*11:01 (setting [5]) it was 0.523 µM; with HLA-A*68:01 (setting [5]) it was 3.09 µM; with HLA-A*03:01 (setting [5]), no less than 29.2 µM.

As for KVKYLYFIK, the dissociation constant Kd with HLA-A*31:01 (setting [5]) was determined as 0.000138 µM; with HLA-A*33:01 (setting [5]) it was 9.3 µM; with HLA-A*11:01 (setting [5]), 0.0491 µM; with HLA-A*68:01 (setting [5]) it was 0.968 µM; with HLA-A*03:01 (setting [5]), 0.113 µM.

For SIGNVTRLFY, the equilibrium dissociation constant (Kd) with HLA-A*31:01 (setting [1]) was 3.05 µM; with HLA-A*33:01 (setting [1]) it was 17.4 µM; with HLA-A*11:01 (setting [1]) it was 0.025 µM; in the assay with HLA-A*68:01 (setting [1]), 2.05 µM; with HLA-A*03:01 (setting [1]) it was 0.00294 µM.

In the case of FISDNKKEYK, the Kd in the assay with HLA-A*31:01 (setting [1]) is 0.118 µM; with HLA-A*33:01 (setting [1]), 1.05 µM; with HLA-A*11:01 (setting [1]) it was 0.0475 µM; with HLA-A*68:01 (setting [1]), 0.0113 µM; with HLA-A*03:01 (setting [1]), 1.88 µM.

For NSINNQLMY, the Kd with HLA-A*31:01 (setting [1]) is no less than 77.9 µM; with HLA-A*33:01 (setting [1]), no less than 77.7 µM; in the assay with HLA-A*11:01 (setting [1]) it was 0.132 µM; in the assay with HLA-A*68:01 (setting [1]) it was 0.104 µM; in the assay with HLA-A*03:01 (setting [1]), 4.65 µM.

In the case of VSKHWELTNK, the Kd was found to be 1.78 µM with HLA-A*31:01 (setting [1]); 11.9 µM in the assay with HLA-A*33:01 (setting [1]); 0.157 µM in the assay with HLA-A*11:01 (setting [1]); 1.52 µM in the assay with HLA-A*68:01 (setting [1]); 0.68 µM with HLA-A*03:01 (setting [1]).

Take GLFDFVNFVK: the dissociation constant Kd turned out to be 0.0661 µM in the assay with HLA-A*31:01 (setting [1]); 1.2 µM in the assay with HLA-A*33:01 (setting [1]); 0.000911 µM in the assay with HLA-A*11:01 (setting [1]); 0.00736 µM with HLA-A*68:01 (setting [1]); 0.000324 µM with HLA-A*03:01 (setting [1]).
